Results: US20150086555A1 (THERACLONE SCIENCES, published 2015)

B1: TCN-556 (5089_K12) (antibody, V domains shown)
VH: QVQLVQSGAEVKKPGASVKVSCKASGYTFIGYDMHWVRQAPGQGLEWMGWINAKRGGTNYAQKFQGRVTMTRDTSISTAYMELNSLRSDDTAVYYCARGVGSRTTIFGVLNPEFDYWGQGTLVTVSS
VL: QSALTQPPSASGSPGQSVTISCTGSSSDVGGYDYVSWYQQHPGKAPKLLIYEVTKRPSGVPDRFSGSKSGNTASLTVSGLQAEDEADYYCSSYAGNYNHVFGPGTKVTVL
B2: TCN-560 (5084_P10) (antibody, V domains shown)
VH: EVQLVESGGGLVQPGGSLRLSCAASGFIFRNYWMSWVRQAPGKGLEWVANIKQDGREKYYVDSLRGRVNISRDNAENSLYLHMNSLRVEDTAVYFCARARMVVVTGDGFDVWGHGTMVTVSS
VL: DIQMTQSPSSLSASVGDRVTITCRASQNIKRYFNWYQQKPGKAPKLLIYAASNLENGVPSRFSGSGSGTDFTLTISSLQPEDFATYYCQQSFSKSWTFGQGTNVDIK
B3: TCN-533 (5256_A17a) (antibody, V domains shown)
VH: QVQLVQSGADVKKPGSSVTVSCKASGGSFSNYGINWVRQAPGQGLEWMGGIIPLINAPNYAPKFQGRVTITADMFSNIVSLQLTSLRTDDTAVYYCARRKMTTAIDYWGQGTLVTVSS
VL: QPVLTQPPSASASLGASVTLTCTLSSAYSNYKVDWYQQRPGKGPRFVMRVGTGGIVGSKGDGIPDRFSVLGSGLNRYLTIKNIQEEDESDYHCGADHGSGSNFVSPYVFGGGTKLTVL
B4: TCN-533 (5256_A17a) (antibody, V domains shown)
VH: QVQLVQSGADVKKPGSSVTVSCKASGGSFSNYGINWVRQAPGQGLEWMGGIIPLINAPNYAPKFQGRVTITADMFSNIVSLQLTSLRTDDTAVYYCARRKMTTAIDYWGQGTLVTVSS
VL: QPVLTQPPSASASLGASVTLTCTLSSAYSNYKVDWYQQRPGKGPRFVMRVGTGGIVGSKGDGIPDRFSVLGSGLNRYLTIKNIQEEDESDYHCGADHGSGSNFVSPYVFGGGTKLTVL

Columns and labels:
[1] = molecular target: hemagglutinin on whole influenza A virions, A/Wisconsin/67/05 H3N2 (Influenza A virus …); test: cell-based or functional assay
[2] = molecular target: hemagglutinin on whole influenza A virions, A/Solomon Islands/3/06 H1N1 (Influenza A virus A/Solomon …); test: cell-based or functional assay
[3] = molecular target: hemagglutinin on live influenza A virus, A/California/4/09 H1N1 (Influenza A virus …); test: cell-based or functional assay
[4] = molecular target: recombinant soluble homotrimeric HA, A/Solomon Islands/3/06 H1N1 (Influenza A virus A/Solomon …); test: microarray, transfection SN IgG, trimeric HA
[5] = molecular target: recombinant soluble homotrimeric HA, A/California/4/09 H1N1 (Influenza A virus …); test: microarray, transfection SN IgG, trimeric HA
[6] = molecular target: recombinant soluble homotrimeric HA, A/Japan/305/57 H2N2 (Influenza A virus A/Japan/305/1957(H2N2)); test: microarray, transfection SN IgG, trimeric HA
[7] = molecular target: recombinant soluble homotrimeric HA, A/swine/Ontario/01911-2/99 H4N6 (Influenza A virus …); test: microarray, transfection SN IgG, trimeric HA
[8] = molecular target: recombinant soluble homotrimeric HA, A/chicken/Vietnam/NCVD-016/08 H5N1 (Influenza A virus …); test: microarray, transfection SN IgG, trimeric HA
[9] = molecular target: recombinant soluble homotrimeric HA, A/duck/Yangzhou/02/05 H8N4 (Influenza A virus …); test: microarray, transfection SN IgG, trimeric HA
[10] = molecular target: recombinant soluble homotrimeric HA, A/Anhui/1/05 H5N1 (Influenza A virus A/Anhui/1/2005(H5N1)); test: microarray, transfection SN IgG, trimeric HA
[11] = molecular target: recombinant soluble homotrimeric HA, A/Egypt/3300-NAMRU3/08 H5N1 (Influenza A virus …); test: microarray, transfection SN IgG, trimeric HA
[12] = molecular target: recombinant soluble homotrimeric HA, A/South Carolina/1/18 H1N1 (Influenza A virus A/South Carolina/1/18 …); test: microarray, transfection SN IgG, trimeric HA
[13] = molecular target: recombinant soluble homotrimeric HA, A/northern shoveler/California/HKWF115/07 H6N4 (Influenza A virus A/northern …); test: microarray, transfection SN IgG, trimeric HA
[14] = molecular target: recombinant soluble homotrimeric HA, A/Indonesia/5/05 H5N1 (Influenza A virus …); test: microarray, transfection SN IgG, trimeric HA
[15] = molecular target: recombinant soluble homotrimeric HA, A/Vietnam/1203/04 H5N1 (Influenza A virus …); test: microarray, transfection SN IgG, trimeric HA
[16] = molecular target: recombinant soluble homotrimeric HA, A/Netherlands/219/03 H7N7 (Influenza A virus …); test: microarray, transfection SN IgG, trimeric HA
[17] = molecular target: recombinant soluble homotrimeric HA, A/Wisconsin/67/05 H3N2 (Influenza A virus …); test: microarray, transfection SN IgG, trimeric HA
[18] = molecular target: recombinant soluble homotrimeric HA, A/Hong Kong/156/97 H5N1 (Influenza A virus A/Hong Kong/156/97 …); test: microarray, transfection SN IgG, trimeric HA
[19] = molecular target: recombinant soluble homotrimeric HA of A/Japan/305/57 (H2N2) (Influenza A virus A/Japan/305/1957(H2N2)); test: trimeric HA microarray, transfection supernatant set 3
[20] = molecular target: recombinant soluble homotrimeric HA of A/chicken/Vietnam/NCVD-016/08 (H5N1) (Influenza A virus …); test: as above
[21] = molecular target: recombinant soluble homotrimeric HA of A/Anhui/1/05 (H5N1) (Influenza A virus A/Anhui/1/2005(H5N1)); test: as above
[22] = molecular target: recombinant soluble homotrimeric HA of A/South Carolina/1/18 (H1N1) (Influenza A virus A/South Carolina/1/18 …); test: as above
[23] = molecular target: recombinant soluble homotrimeric HA of A/Hong Kong/2108/03 (H9N2) (Influenza A virus A/HK/2108/2003(H9N2)); test: as above
[24] = molecular target: recombinant soluble homotrimeric HA of A/Wisconsin/67/05 (H3N2) (Influenza A virus …); test: as above
[25] = molecular target: recombinant soluble homotrimeric HA of A/California/4/09 (H1N1) (Influenza A virus …); test: as above
[26] = molecular target: recombinant soluble homotrimeric HA of A/Egypt/3300-NAMRU3/08 (H5N1) (Influenza A virus …); test: as above
[27] = molecular target: recombinant soluble homotrimeric HA of A/Solomon Islands/3/06 (H1N1) (Influenza A virus A/Solomon …); test: as above
[28] = molecular target: recombinant soluble homotrimeric HA of A/Vietnam/1203/04 (H5N1) (Influenza A virus …); test: as above
[29] = molecular target: recombinant soluble homotrimeric HA of A/Hong Kong/1073/99 (H9N2) (Influenza A virus A/Hong Kong/1073/99 …); test: as above
[30] = molecular target: recombinant soluble homotrimeric HA of A/duck/Yangzhou/02/05 (H8N4) (Influenza A virus …); test: as above
[31] = molecular target: recombinant soluble homotrimeric HA of A/northern shoveler/California/HKWF115/07 (H6) (Influenza A virus A/northern …); test: as above
[32] = molecular target: recombinant soluble homotrimeric HA of A/Netherlands/219/03 (H7N7) (Influenza A virus …); test: as above
[33] = molecular target: recombinant soluble homotrimeric HA of A/Indonesia/5/05 (H5N1) (Influenza A virus …); test: as above
[34] = molecular target: recombinant homotrimeric HA A/Netherlands/219/03 H7N7 (Influenza A virus …); test: protein microarray, purified IgG, trimeric HA
[35] = molecular target: recombinant homotrimeric HA A/Solomon Islands/3/06 H1N1 (Influenza A virus A/Solomon …); test: protein microarray, purified IgG, trimeric HA
[36] = molecular target: recombinant homotrimeric HA A/Egypt/3300-NAMRU3/08 H5N1 (Influenza A virus …); test: protein microarray, purified IgG, trimeric HA
[37] = molecular target: recombinant homotrimeric HA A/chicken/Vietnam/NCVD-016/08 H5N1 (Influenza A virus …); test: protein microarray, purified IgG, trimeric HA
[38] = molecular target: recombinant homotrimeric HA A/Indonesia/5/05 H5N1 (Influenza A virus …); test: protein microarray, purified IgG, trimeric HA
[39] = molecular target: recombinant homotrimeric HA A/Hong Kong/2108/03 H9N2 (Influenza A virus A/HK/2108/2003(H9N2)); test: protein microarray, purified IgG, trimeric HA
[40] = molecular target: recombinant homotrimeric HA A/South Carolina/1/18 H1N1 (Influenza A virus A/South Carolina/1/18 …); test: protein microarray, purified IgG, trimeric HA
[41] = molecular target: recombinant homotrimeric HA A/Japan/305/57 H2N2 (Influenza A virus A/Japan/305/1957(H2N2)); test: protein microarray, purified IgG, trimeric HA
[42] = molecular target: recombinant homotrimeric HA A/Hong Kong/1073/99 H9N2 (Influenza A virus A/Hong Kong/1073/99 …); test: protein microarray, purified IgG, trimeric HA
[43] = molecular target: recombinant homotrimeric HA A/Hong Kong/156/97 H5N1 (Influenza A virus A/Hong Kong/156/97 …); test: protein microarray, purified IgG, trimeric HA
[44] = molecular target: recombinant homotrimeric HA A/California/4/09 H1N1 (Influenza A virus …); test: protein microarray, purified IgG, trimeric HA
[45] = molecular target: recombinant homotrimeric HA A/Vietnam/1203/04 H5N1 (Influenza A virus …); test: protein microarray, purified IgG, trimeric HA
[46] = molecular target: recombinant homotrimeric HA A/Anhui/1/05 H5N1 (Influenza A virus A/Anhui/1/2005(H5N1)); test: protein microarray, purified IgG, trimeric HA
[47] = molecular target: recombinant homotrimeric HA A/Wisconsin/67/05 H3N2 (Influenza A virus …); test: protein microarray, purified IgG, trimeric HA
[48] = molecular target: recombinant homotrimeric HA A/northern shoveler/California/HKWF115/07 H6N4 (Influenza A virus A/northern …); test: protein microarray, purified IgG, trimeric HA

Binder	% Neutralization [1]	% Neutralization [2]	% Neutralization [3]	Trimeric HA Binding: RLU [4]	Trimeric HA Binding: RLU [5]	Trimeric HA Binding: RLU [6]	Trimeric HA Binding: RLU [7]	Trimeric HA Binding: RLU [8]	Trimeric HA Binding: RLU [9]	Trimeric HA Binding: RLU [10]	Trimeric HA Binding: RLU [11]	Trimeric HA Binding: RLU [12]	Trimeric HA Binding: RLU [13]	Trimeric HA Binding: RLU [14]	Trimeric HA Binding: RLU [15]	Trimeric HA Binding: RLU [16]	Trimeric HA Binding: RLU [17]	Trimeric HA Binding: RLU [18]	also measured
B1	15%	0%	0%	23400 RLU	20900 RLU	22800 RLU	19300 RLU	22700 RLU	22400 RLU	13800 RLU	16600 RLU	32700 RLU	34800 RLU	15200 RLU	17400 RLU	43600 RLU	44700 RLU	24600 RLU	–
B2	4%	0%	0%	22400 RLU	31100 RLU	25900 RLU	16800 RLU	18200 RLU	27900 RLU	18600 RLU	18700 RLU	30500 RLU	35900 RLU	17000 RLU	19500 RLU	32100 RLU	55400 RLU	29300 RLU	–
B3	–	–	–	–	–	–	–	–	–	–	–	–	–	–	–	–	–	–	Trimeric HA Binding: RLU [19]: 18600 RLU; Trimeric HA Binding: RLU [20]: 24600 RLU; Trimeric HA Binding: RLU [21]: 301 RLU; Trimeric HA Binding: RLU [22]: 16400 RLU; Trimeric HA Binding: RLU [23]: 33 RLU; Trimeric HA Binding: RLU [24]: 16100 RLU; Trimeric HA Binding: RLU [25]: 6880 RLU; Trimeric HA Binding: RLU [26]: 18600 RLU; Trimeric HA Binding: RLU [27]: 15500 RLU; Trimeric HA Binding: RLU [28]: 11700 RLU; Trimeric HA Binding: RLU [29]: 23800 RLU; Trimeric HA Binding: RLU [30]: 711 RLU; Trimeric HA Binding: RLU [31]: 7810 RLU; Trimeric HA Binding: RLU [32]: 209 RLU; Trimeric HA Binding: RLU [33]: 28300 RLU
B4	–	–	–	–	–	–	–	–	–	–	–	–	–	–	–	–	–	–	Trimeric HA Binding: RLU [34]: 712 RLU; Trimeric HA Binding: RLU [35]: 12000 RLU; Trimeric HA Binding: RLU [36]: 20600 RLU; Trimeric HA Binding: RLU [37]: 5470 RLU; Trimeric HA Binding: RLU [38]: 23100 RLU; Trimeric HA Binding: RLU [39]: 164 RLU; Trimeric HA Binding: RLU [40]: 8670 RLU; Trimeric HA Binding: RLU [41]: 23400 RLU; Trimeric HA Binding: RLU [42]: 5810 RLU; Trimeric HA Binding: RLU [43]: 13200 RLU; Trimeric HA Binding: RLU [44]: 24000 RLU; Trimeric HA Binding: RLU [45]: 26900 RLU; Trimeric HA Binding: RLU [46]: 5650 RLU; Trimeric HA Binding: RLU [47]: 308 RLU; Trimeric HA Binding: RLU [48]: 20400 RLU
